From patent publication US20190127440A1 (VIB VZW, published 2019)

B1: human TSLP-trap1 (designed binder)
chain: GAAEGVQIQIIYFNLETVQVTWNASKYSRTNLTFHYRFNGDEAYDQCTNYLLQEGHTSGCLLDAEQRDDILYFSIRNGTHPVFTASRWMVYYLKPSSPKHVRFSWHQDAVTVTCSDLSYGDLLYEVQYRSPFDTEWQSKQENTCNVTIEGLDAEKCYSFWVRVKAMEDVYGPDTYPSDWSEVTCWQRGEIRDACAETPTPPKPKLSKSRGGSGGSGGSGGSGGSGGSGGSGGSGGSGGSGGSGGSGGSGGSGGSGGSGGSGGSGGSGGSLQESGYAQNGDLEDAELDDYSFSCYSQLEVNGSQHSLTCAFEDPDVNTTNLEFEICGALVEVKCLNFRKLQEIYFIETKKFLLIGKSNICVKVGEKSLTCKKIDLTTIVKPEAPFDLSVIYREGANDFVVTFNTSHLQKKYVKVLMHDVAYRQEKDENKWTHVNLSSTKLTLLQRKLQPAAMYEIKVRSIPDHYFKGFWSEWSPSYYFRTPEINNSSGEMDGTKHHHHHH
notes: Monomeric single chain fusion protein; Produced in T-REx-293 cells

Columns and labels:
[1] = molecular target: full-length FLAG-tagged human TSLPR and full-length HA-tagged human IL-7Ralpha co-expressed on HEK293T cells (human) (UniProt Q9HC73); assay: cell-based or functional assay
Sequence of full-length FLAG-tagged human TSLPR and full-length HA-tagged human IL-7Ralpha co-expressed on HEK293T cells (human) (Q9HC73 23-371, chain 1 of 2): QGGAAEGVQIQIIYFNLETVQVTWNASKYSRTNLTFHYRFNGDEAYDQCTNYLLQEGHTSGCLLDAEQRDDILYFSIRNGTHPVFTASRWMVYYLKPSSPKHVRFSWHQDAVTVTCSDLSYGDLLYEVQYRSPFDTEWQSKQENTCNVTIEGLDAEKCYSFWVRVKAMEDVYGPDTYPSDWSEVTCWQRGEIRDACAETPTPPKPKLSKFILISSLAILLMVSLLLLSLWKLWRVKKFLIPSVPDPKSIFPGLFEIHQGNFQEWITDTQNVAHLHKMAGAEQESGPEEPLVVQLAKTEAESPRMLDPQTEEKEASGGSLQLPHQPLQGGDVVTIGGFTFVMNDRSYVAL
Sequence of full-length FLAG-tagged human TSLPR and full-length HA-tagged human IL-7Ralpha co-expressed on HEK293T cells (human) (P16871 21-459, chain 2 of 2, further chain): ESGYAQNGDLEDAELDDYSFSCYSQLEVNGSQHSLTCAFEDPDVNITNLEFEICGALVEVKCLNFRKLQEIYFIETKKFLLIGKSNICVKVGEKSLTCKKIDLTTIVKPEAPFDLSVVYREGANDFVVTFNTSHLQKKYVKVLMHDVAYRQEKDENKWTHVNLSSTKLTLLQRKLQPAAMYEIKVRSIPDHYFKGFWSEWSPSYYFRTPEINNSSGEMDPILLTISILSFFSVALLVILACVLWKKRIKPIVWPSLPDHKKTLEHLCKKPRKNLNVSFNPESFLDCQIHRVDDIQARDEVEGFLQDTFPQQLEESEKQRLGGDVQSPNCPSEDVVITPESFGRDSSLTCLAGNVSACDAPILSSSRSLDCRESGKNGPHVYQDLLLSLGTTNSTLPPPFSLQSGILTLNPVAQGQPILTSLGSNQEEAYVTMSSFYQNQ

[2] = molecular target: T1, C-terminally biotinylated human TSLP_R127A_R130S (pHL-TSLP_R127A_R130S-AVITAG construct) (human, UniProt Q969D9 29-159, specific C-terminal in vivo biotinylation on the AVITAG); assay: biolayer interferometry (Octet RED96), biotinylated TSLP on streptavidin biosensors, 1:1 model
T1 construct: Made in HEK293T cells with BirA co-transfection; immobilised on streptavidin biosensors for BLI; also called biotinylated TSLP; not shown: C-terminal AVITAG (and purification tag) of the pHL-AVITAG vector
T1 sequence (Q969D9 29-159 R127A/R130S limits assumed): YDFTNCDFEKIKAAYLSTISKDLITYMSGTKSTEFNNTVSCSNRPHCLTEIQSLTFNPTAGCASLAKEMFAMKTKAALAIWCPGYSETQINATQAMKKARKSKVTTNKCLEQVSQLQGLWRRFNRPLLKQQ

[3] = molecular target: T1, C-terminally biotinylated human …; assay: biolayer interferometry (Octet RED96), biotinylated TSLP on streptavidin biosensors, 1:1 model, average of three replicates
Description: All BLI experiments were performed in PBS buffer supplemented with 0.01% (w/v) BSA and 0.002% (v/v) Tween 20, with an Octet RED96 instrument (ForteBio), operating at 25° C.
All data were fitted with the FortéBio Data Analysis 9.0.0.4 software using a 1:1 ligand model. The reported values for the fitted parameters represent the average (and standard deviation) from three replicate measurements.

Row | Molecule | STAT5-dependent luciferase activity in HEK293T cells transfected with full-length TSLPR and IL-7Ralpha [1] [pM] | koff [2] [s⁻¹] | Kd [3] [nM] | kon [3] [M⁻¹ s⁻¹]
1 | human TSLP_R127A_R130S, mammalian-cell derived recombinant, C-terminal His-tag (from UniProt Q969D9 29-159) (ligand) | 9 | – | – | –
2 | B1 | – | 1.72e-05 | 0.12 | 140000
